Test [1] has as its target T1, biotinylated histone H3 peptide trimethylated at lysine 27, H3K27me3 (21-44) (UniProt P68431 22-45, trimethyl-lysine at K27; biotinylated). Briefly: peptide microspot array; apparent Kd; 20 uM H3K27me3; replicate 3.
The target of test [2] is T1, biotinylated histone H3 peptide …. Kind of test: peptide microspot array; apparent Kd; 50 uM H3K27me3; replicate 1.
Test [3] shares this target. Kind of test: peptide microspot array; apparent Kd; 10 uM H3K27me3; replicate 2.
The target is the same in test [4]. Briefly: peptide microspot array; apparent Kd; 10 uM H3K27me3; replicate 1.
For test [5] the target is unchanged. Kind of test: peptide microspot array; apparent Kd; 20 uM H3K27me3; replicate 2.
Test [6] shares this target. Kind of test: peptide microspot array; apparent Kd; 10 uM H3K27me3; replicate 3.
Test [7] shares this target. Briefly: peptide microspot array; apparent Kd; 50 uM H3K27me3; replicate 2.

B1: PcTF, monovalent Polycomb-based transcription factor (pET28 construct, purified from E. coli) (designed binder)
chain: MELSAVGERVFAAEALLKRRIRKGRMEYLVKWKGWSQKYSTWEPEENILDARLLAAFEERER
For the molecule B1, the Kd in test [1] amounted to 6.45 µM; in test [2], 3.5 µM; in test [3] it was 1.55 µM; in test [4], 1.54 µM; in test [5], 5.66 µM; in test [6], 7.6 µM. The Kd in test [7] was found to be 7.73 µM.

These data come from patent US20190248848A1 (published 2019).
